50 molecules from patent publication WO2001072771A2 can be followed below.

Experiment [1] deals with soluble human insulin receptor (IR-Fc) (human) (UniProt P06213). The experiment can be described thus: phage ELISA. For orientation: In an ELISA, binding on a coated surface is turned into a signal by an enzyme label.
In experiment [2] the target is soluble IGF-1 receptor (human) (UniProt P08069). The experiment can be described thus: phage ELISA.

No end group written: not given here.

For the molecule AQPCGGFYGLLEQLVGRSVCD [20E2B-4-F10-IGFR], the ratio over background in experiment [1] came to 2.2; in experiment [2], 17.3.

Consider DRAFYNGLRDLVGAVYGAWD [R20 -4-20C11-IR], for which the ratio over background was found to be 3 in experiment [1] and 30.8 in experiment [2].

Regarding VATSQGFYSGLSELLQGGGNV [20E2B-3-E12-IGFR], the ratio over background was determined as 0.8 in experiment [1] and 6 in experiment [2].

As to RGKTAAVIVGRPADPFYHKLSELLQGG [B6Hα-3-E8-IR], the ratio over background stood at 1.1 in experiment [1] and 5.3 in experiment [2].

On to YRGMVLGRISGGAGKAASERPARIGQKVSAVNFYDWFV [A6L-0-H3-IR], for which the ratio over background in experiment [2] was 26.

On to NSRDGGFYLQLERLLGFPVTG [20E2B-3-D4-IGFR], for which the ratio over background in experiment [1] came out at 0.8; in experiment [2], 7.9.

As for GCITAENGAGDPFYHKLSELGGCS [B6Hα-1-B3-IR], the ratio over background in experiment [2] stood at 3.2.

As to AGSVTSFYDAMEQLVATGTSA [20E2A-3-A4-IGFR], in experiment [2], the ratio over background is 2.5.

Consider SSCDGAGHESFYEWFVRQVSGCRSV [H2CA-3-C8-IGFR], for which the ratio over background in experiment [1] turned out to be 1.2; in experiment [2], 5.6.

As for NVFVSFYDAIDQLVCQRIGC [20E2A-4-G11-IGFR], the ratio over background in experiment [2] was 3.3.

As to RGMKEEVLVGGSTDPFYHKLSELLQGS [B6Hα-3-F11-IR], the ratio over background in experiment [2] amounted to 18.7.

As for APDPSDFQEIFYDWFVRQVSRMPGGG [H2CA-1-A3-IGFR], the results for the ratio over background in experiment [1] and in experiment [2] were 0.8 and 3.8, respectively.

As to RAGSSDFHEDFYEWFVRQVSLSLKGK [H2CA-2-B9-IGFR], the values for the ratio over background in experiment [1] and in experiment [2] were 1.7 and 7, respectively.

As for PVGVQGFYEGLSRLVLGRGGW [20E2B-4-F8-IGFR], the ratio over background was determined as 0.8 in experiment [1] and 7.3 in experiment [2].

In the case of RGAVAGFHDQFYDWFDRQVSRVHKFG [H2CA-4-H9-IGFR], the ratio over background in experiment [2] is 5.6.

For the molecule VGTVAGFYDAIAQLVARASRV [20E2A-3-C7-IGFR], the ratio over background in experiment [1] was 1.1; in experiment [2], 5.4.

As for YSCGDGFYSLLSDLLGGQFRC [20E2B-4-H12-IGFR], the results for the ratio over background in experiment [1] and in experiment [2] were 0.8 and 9.7, respectively.

As for LSVALSFYDALGQLVAGEGRW [20E2A-3-A12-IGFR], the ratio over background in experiment [2] is 4.3.

As to SRVAATKEKRPSDDPFYHKLSELLQGS [B6Hα-3-F7-IR], the ratio over background in experiment [2] stood at 3.1.

RQGTGSFYLMLEQLLVGARGP [20E2B-4-G11-IGFR]: the ratio over background is 0.6 in experiment [1] and 4.5 in experiment [2].

On to GFREGNFYEWFQAQVT [E4D -4-H2-IR], for which the ratio over background worked out at 8.2 in experiment [1] and 33.9 in experiment [2].

Regarding LQPCSGFYECIERLIGVKLSG (not fully specified (bridges); cysteine pairing not given here) [20E2Bβ-4-G7-IR], in experiment [2], the ratio over background was 25.2.

Consider GCWEWQKWHGASDPFYHKLSELGGCS [B6Hα-3-F10-IR], for which the ratio over background in experiment [2] is 8.8.

Turning to SRAKVEAEMPDSGDPFYHKLSELLASG [B6Hα-1-A3-IR], the ratio over background in experiment [1] stood at 0.8; in experiment [2], 2.6.

In the case of QPDHSYFYSLLQELVGSEERL [20E2B-4-F9-IGFR], in experiment [2], the ratio over background came to 14.7.

On to IWATGDFYRLLSQLVMGRVGT [20E2B-2-B8-IGFR], for which the results for the ratio over background in experiment [1] and in experiment [2] were 0.8 and 5.7, respectively.

In the case of GGTEVDFYRALERLVRGQLGL [20E2B-3-D8-IGFR], in experiment [2], the ratio over background turned out to be 17.7.

Turning to RFDPFYSYFVNLLGASA [NNRPγ-4-A7-IR], the ratio over background was 1.3 in experiment [1] and 6.3 in experiment [2].

For the molecule DSVGDNFYQLLESLVGGHGVG [20E2B-3-D6-IGFR], the ratio over background in experiment [1] was 2.6; in experiment [2], 17.8.

Take PAGPCGFYCGLGLLLHGDQSP [20E2B-4-H8-IGFR]: the ratio over background in experiment [1] was 0.9; in experiment [2], 5.3.

On to QAVQPGFHEEFYDWFVRQVSTGVGGG [H2CA-4-H4-IGFR], for which the ratio over background in experiment [1] was determined as 1; in experiment [2] it was 4.1.

In the case of VGYQGQGDENFYDWFIRQVSGRLGVQ [H2CA-4-F5-IGFR], the values for the ratio over background in experiment [1] and in experiment [2] were 0.8 and 9.7, respectively.

Regarding FFYRCLSRLLGGQLGSRLGLSCIGD [20C-3-E4-IGFR], the ratio over background was found to be 1.3 in experiment [1] and 7.7 in experiment [2].

As for QPAPDGFYSALMKLIGRGGVS [20E2B-3-C8-IGFR], the ratio over background in experiment [2] amounted to 15.6.

On to GGTKAVAKVGTRDDPFYHKLSELLQGS [B6Hα-4-G8-IR], for which the ratio over background in experiment [2] worked out at 6.1.

On to RCQGTGFYTCIQELIGFGDPD [20E2B-4-H9-IGFR], for which the ratio over background in experiment [1] turned out to be 0.9; in experiment [2] it was 5.2.

For the molecule AVRATRFDEAFYDWFVRQISDGQGNK [H2CA-4-F6-IGFR], the ratio over background in experiment [1] was 1.1; in experiment [2], 7.3.

In the case of ASSASGFYELLQRLAGLGLEV [20E2B-3-C4-IGFR], the ratio over background in experiment [1] worked out at 3.3; in experiment [2], 20.4.

For EGSGFYGYFFSLLGLQG [NNRPγ-4-A9-IR], the ratio over background in experiment [1] worked out at 1.4; in experiment [2], 10.

Regarding LSSDGQFYRANLLLQGSAGR [20E2B-2-B7-IGFR], the values for the ratio over background in experiment [1] and in experiment [2] were 0.9 and 6.1, respectively.

Regarding LSCLAYSRHGIWRPSTDLGLGRSVGEGSVSTRWRGYDWFE [40F-4-D1-IGFR], the ratio over background came to 0.3 in experiment [1] and 4.6 in experiment [2].

With SSYGCDGFYLMLFSLGLVASQELEC [20C-3-A1-IGFR], in experiment [2], the ratio over background was determined as 20.8.

Consider RCEEKQAEVGPSSDPFYHKMSELLGCR [B6Hα-3-E9-IR], for which, in experiment [2], the ratio over background stood at 24.2.

For RFSTDGFYQYLLALVGGGPVG [20E2B-1-A11-IGFR], the values for the ratio over background in experiment [1] and in experiment [2] were 1 and 9.5, respectively.

In the case of SGAKVIWTGDSGDPFYHKLSELLQGS [B6Hα-2-C10-IR], the ratio over background in experiment [1] is 1.1; in experiment [2] it was 5.8.

As to YRGMLVLGRSSDGAGKVAFERPARIGQTVFAVNFYDWFV [A6L-0-E6-IR], the ratio over background in experiment [2] was 31.

With QGNVLDFYGWIGRLLAKQGSD [20E2B-3-D12-IGFR], the results for the ratio over background in experiment [1] and in experiment [2] were 0.9 and 6.2, respectively.

For ICTGQGFYQVLCGLLRGTSAR [20E2B-2-B3-IGFR], the ratio over background in experiment [1] came to 0.7; in experiment [2], 5.3.

For the molecule IIGGFYSYFNSVLRLGT [NNRPγ-4-A1-IR], the ratio over background in experiment [2] was found to be 10.9.

Take VNQSGSIHENFYDWFERQVSHQRGVR [H2CA-4-F10-IGFR]: the ratio over background was 1 in experiment [1] and 5.7 in experiment [2].
